Series [1] deals with T1, FPMO11 (flavoprotein monooxygenase 11).
T1 construct: full-length, C-terminal 6xHis, pET21a, E. coli BL21; FAD flavoprotein
Nature of the series: NAD(P)H oxidation at […] nm, initial velocity. The class given is biochemical, Phanerodontia chrysosporium. The following applies: apparent, 50 mM HEPES-NaOH pH 7.0, 30°C.

Series [2] concerns T2, IDD2 (intradiol dioxygenase 2).
T2 construct: recombinant, E. coli
The series is described as follows: O2 consumption, Clark electrode; Michaelis-Menten fit. The following applies: apparent; 50 mM Tris-HCl pH 8.0, air-saturated, superoxide dismutase added. The class given is biochemical, Phanerodontia chrysosporium.

For series [3], the system named is T3, IDD1 (intradiol dioxygenase 1).
T3 construct: recombinant, E. coli
The description is as above. The class given is biochemical, Phanerodontia chrysosporium. The following applies: apparent; 50 mM Tris-HCl pH 8.0, air-saturated, superoxide dismutase added.

The target of series [4] is T4, NahG (salicylate 1-monooxygenase) (Pseudomonas putida, UniProt P23262).
T4 construct: full-length synthetic gene, C-terminal 6xHis, pET21a, E. coli BL21
T4 sequence (P23262 2-434): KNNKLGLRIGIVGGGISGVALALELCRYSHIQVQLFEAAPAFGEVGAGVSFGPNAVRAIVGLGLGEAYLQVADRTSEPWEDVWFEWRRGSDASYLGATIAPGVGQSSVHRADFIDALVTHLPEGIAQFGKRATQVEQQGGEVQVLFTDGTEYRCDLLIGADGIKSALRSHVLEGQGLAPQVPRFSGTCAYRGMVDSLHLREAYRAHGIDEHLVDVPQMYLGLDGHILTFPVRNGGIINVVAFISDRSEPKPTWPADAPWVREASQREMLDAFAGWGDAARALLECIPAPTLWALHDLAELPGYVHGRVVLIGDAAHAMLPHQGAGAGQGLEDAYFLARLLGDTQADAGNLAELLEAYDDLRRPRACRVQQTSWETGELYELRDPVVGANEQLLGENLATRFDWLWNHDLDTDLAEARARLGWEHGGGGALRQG
Nature of the series: NAD(P)H oxidation at […] nm, initial velocity. The class given is biochemical. The following applies: apparent; co-substrate NADH varied, aromatic substrate not stated; 50 mM HEPES pH 8.0, 30°C.

Substrate in series [5]: O=C(O)c1cc(O)ccc1O
Nature of the series: purified protein. Conditions: apparent, NAD(P)H co-substrate (NADH in results, NADPH in methods), 50 mM HEPES pH 8.0, 30°C.

Substrate in series [6]: NC(=O)C1=CN([C@@H]2O[C@H](COP(=O)(O)OP(=O)(O)OC[C@H]3O[C@@H](n4cnc5c(N)ncnc54)[C@H](OP(=O)(O)O)[C@@H]3O)[C@@H](O)[C@H]2O)C=CC1
The series is described as follows: purified protein. The class given is biochemical, Pseudomonas putida. The following applies: apparent, co-substrate NADPH varied, aromatic substrate not stated, 50 mM HEPES pH 8.0, 30°C, varied: cofactor.

Substrate in series [7]: O=C(O)c1ccc(Cl)cc1O
Nature of the series: purified protein. In kind it is biochemical, Pseudomonas putida. Conditions: apparent, NAD(P)H co-substrate (NADH in results, NADPH in methods), 50 mM HEPES pH 8.0, 30°C.

Substrate in series [8]: O=C(O)c1ccc(O)cc1O
The series is described as follows: purified protein. The class given is biochemical, Pseudomonas putida. The following applies: apparent, NAD(P)H co-substrate (NADH in results, NADPH in methods), 50 mM HEPES pH 8.0, 30°C.

Substrate in series [9]: O=C(O)c1cccc(O)c1O
The series is described as follows: purified protein. The following applies: apparent, NAD(P)H co-substrate (NADH in results, NADPH in methods), 50 mM HEPES pH 8.0, 30°C. In kind it is biochemical, Pseudomonas putida.

In the case of `O=C(O)c1c(O)ccc2ccccc12` [2H1N], in series [1] (NADPH co-substrate), the Km was 110 ± 25 µM.
On to `O=C(O)c1ccc2ccccc2c1O` [1H2N], for which the Km in series [1] (NADPH co-substrate) came out at 100 ± 15 µM.
As for `O=C(O)c1ccc(O)cc1O` [2,4DHB], the Km in [1] (NADPH co-substrate) was found to be 82 ± 9.7 µM.
Turning to `Oc1ccc2ccccc2c1O` [1,2DHN], the Km in series [2] worked out at 520 ± 180 µM; in [3], 480 ± 18 µM.
As to `NC(=O)C1=CN([C@@H]2O[C@H](COP(=O)(O)OP(=O)(O)OC[C@H]3O[C@@H](n4cnc5c(N)ncnc54)[C@H](O)[C@@H]3O)[C@@H](O)[C@H]2O)C=CC1` [NADH], the Km in series [4] came to 27 ± 10 µM; in series [1] (co-substrate NADH varied, aromatic substrate not stated) it was 170 ± 60 µM.
As for `O=C(O)c1ccccc1O` [SA], the Km in series [1] (NADPH co-substrate) worked out at 30 ± 34 µM.
For the molecule `O=C(O)c1cc(O)ccc1O` [GA], the Km in series [1] (NADPH co-substrate) was determined as 48 ± 45 µM.
In the case of `O=C(O)c1cccc(O)c1O` [2,3DHB], the Km in [1] (NADPH co-substrate) amounted to 67 ± 1.8 µM.
As to `NC(=O)C1=CN([C@@H]2O[C@H](COP(=O)(O)OP(=O)(O)OC[C@H]3O[C@@H](n4cnc5c(N)ncnc54)[C@H](OP(=O)(O)O)[C@@H]3O)[C@@H](O)[C@H]2O)C=CC1` [NADPH], in series [1] (co-substrate NADPH varied, aromatic substrate not stated), the Km was 150 ± 37 µM.
In the case of `O=C(O)c1c(O)cccc1-c1ccccc1` [2H6PB], the Km in series [1] (NADPH co-substrate) turned out to be 320 ± 84 µM.
With `O=C(O)c1ccc(Cl)cc1O` [4CSA], the Km in series [1] (NADPH co-substrate) was 120 ± 28 µM.
In the case of `O=C(O)c1cccc(-c2ccccc2)c1O` [2H3PB], in [1] (NADPH co-substrate), the Km was 290 ± 67 µM.

B1: NahG (salicylate 1-monooxygenase) (Pseudomonas putida) (protein)
chain: T4 sequence (P23262 2-434)
notes: full-length synthetic gene, C-terminal 6xHis, pET21a, E. coli BL21
On to B1, for which the Km in series [5] amounted to 110 ± 30 µM; in series [6], 69 ± 17 µM; in [7], 51 ± 19 µM; in [8], 70 ± 15 µM; in [9] it was 120 ± 15 µM. The kcat in [5] came out at 7 s⁻¹; in series [6], 1.33 ± 0.583 s⁻¹; in series [7] it was 0.917 ± 0.4 s⁻¹; in series [8] it was 5.17 ± 0.467 s⁻¹; in [9], 5.5 ± 0.567 s⁻¹. The kcat/Km amounted to 61700 M⁻¹ s⁻¹ in [5]; 20000 M⁻¹ s⁻¹ in series [6]; 18300 M⁻¹ s⁻¹ in [7]; 73300 M⁻¹ s⁻¹ in series [8]; 45000 M⁻¹ s⁻¹ in series [9].

The Km is the concentration of substrate that gives half-maximal velocity. As usually defined, the kcat is the maximal rate divided by the concentration of active sites. In general, kcat/Km refers to the turnover number divided by the Michaelis constant.

Source of the values: PMC11921375, “Phenanthrene degradation by a flavoprotein monooxygenase from Phanerodontia chrysosporium” (Applied and Environmental Microbiology, 2025).
